The record followed here is the supplement of paper PMC9112550, “Optimization of the antimicrobial peptide Bac7 by deep mutational scanning” (BMC Biology, 2022).

The data set relates to Escherichia coli TOP10. In words: shrunken log2 fold change of peptide-encoding DNA abundance (4.5 h post-induction vs induction); higher = less antimicrobial activity (less host growth inhibition). Particulars: time post-induction: 4.5 h; library: site-saturation at positions 5, 18, 19, 20.
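Also: peptides expressed intracellularly from a pBAD plasmid library in pooled LB shake-flask culture, induced with 0.3% L-arabinose, DNA abundance read by NGS, three biological replicates, DESeq2 with apeglm shrinkage.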

Take RRIRKRPPRLPRPRPRPFAIPRP: the “shrunken log2 fold change” value was -0.00592.
Consider RRIRFRPPRLPRPRPRPAGQPRP, for which the “shrunken log2 fold change” value came out at 0.171.
As to RRIRQRPPRLPRPRPRPTCCPRP, the “shrunken log2 fold change” value was -0.00785.
With RRIRGRPPRLPRPRPRPYEWPRP the figure was -0.027.
In the case of RRIRTRPPRLPRPRPRPEAWPRP it was 0.178; in that of RRIRVRPPRLPRPRPRPKLPPRP, -0.266; in that of RRIRRRPPRLPRPRPRPQWIPRP, 0.064.
Take RRIRYRPPRLPRPRPRPRQAPRP: the “shrunken log2 fold change” value turned out to be 0.0877.
With RRIRFRPPRLPRPRPRPICHPRP the figure was -0.351.
On to RRIRWRPPRLPRPRPRPGMSPRP, for which the “shrunken log2 fold change” value was found to be 0.893.
RRIRRRPPRLPRPRPRPWMGPRP: the “shrunken log2 fold change” value is -0.127.
With RRIRNRPPRLPRPRPRPAYIPRP the figure was -0.786; with RRIRERPPRLPRPRPRPIRAPRP, 0.0262.
With RRIRYRPPRLPRPRPRPYFTPRP, the “shrunken log2 fold change” value was -0.981.
In the case of RRIRFRPPRLPRPRPRPYEKPRP it was -0.075; in that of RRIRARPPRLPRPRPRPNRSPRP, -0.229; in that of RRIRHRPPRLPRPRPRPFLHPRP, -0.449.
Regarding RRIRPRPPRLPRPRPRPMYRPRP, the “shrunken log2 fold change” value was -0.752.
On to RRIRRRPPRLPRPRPRPCMNPRP, for which the “shrunken log2 fold change” value was -0.154.
With RRIRTRPPRLPRPRPRPIVEPRP the figure was 0.0431; with RRIRDRPPRLPRPRPRPFFWPRP, 0.504.
With RRIRRRPPRLPRPRPRPGRGPRP the figure was 0.805; with RRIRHRPPRLPRPRPRPWLVPRP, -0.0872.
As to RRIRGRPPRLPRPRPRPMWRPRP, the “shrunken log2 fold change” value came to 0.899.
With RRIRQRPPRLPRPRPRPTVLPRP the figure was -0.0201.
Regarding RRIRIRPPRLPRPRPRPFCEPRP, the “shrunken log2 fold change” value was -0.23.
For RRIRVRPPRLPRPRPRPASMPRP, the “shrunken log2 fold change” value was found to be 0.0106.
With RRIRWRPPRLPRPRPRPGGAPRP, the “shrunken log2 fold change” value came out at 0.691.
Consider RRIRWRPPRLPRPRPRPWDFPRP, for which the “shrunken log2 fold change” value was -0.2.
With RRIRSRPPRLPRPRPRPIDMPRP the figure was -0.00448.
For RRIRGRPPRLPRPRPRPWYMPRP, the “shrunken log2 fold change” value worked out at 0.0753.
With RRIRTRPPRLPRPRPRPSLQPRP the figure was -0.0953; with RRIRIRPPRLPRPRPRPFTDPRP, 0.0112.
In the case of RRIRFRPPRLPRPRPRPRLEPRP it was 0.392; in that of RRIRARPPRLPRPRPRPHEVPRP, 0.101; in that of RRIRLRPPRLPRPRPRPMINPRP, -0.224.
With RRIRLRPPRLPRPRPRPNVGPRP the figure was 0.0116; with RRIRNRPPRLPRPRPRPLINPRP, -0.533; with RRIRDRPPRLPRPRPRPDKWPRP, -0.0651.
Take RRIRTRPPRLPRPRPRPQVTPRP: the “shrunken log2 fold change” value is 0.304.
With RRIRVRPPRLPRPRPRPKKGPRP the figure was 0.13; with RRIRSRPPRLPRPRPRPCDCPRP, -0.239.
With RRIRGRPPRLPRPRPRPGHIPRP the figure was 0.299; with RRIRFRPPRLPRPRPRPCHCPRP, -0.0994; with RRIRWRPPRLPRPRPRPILSPRP, -0.422.
With RRIRQRPPRLPRPRPRPGIYPRP the figure was -0.0206.
Consider RRIRRRPPRLPRPRPRPSDNPRP, for which the “shrunken log2 fold change” value was -0.134.
Regarding RRIRTRPPRLPRPRPRPKRCPRP, the “shrunken log2 fold change” value came to 0.0203.
In the case of RRIRLRPPRLPRPRPRPNANPRP it was -0.101; in that of RRIRKRPPRLPRPRPRPKFSPRP, 0.0774; in that of RRIRMRPPRLPRPRPRPGRSPRP, 0.303.
In the case of RRIRIRPPRLPRPRPRPGIVPRP it was -0.399.
With RRIRGRPPRLPRPRPRPFRRPRP the figure was 0.234.
With RRIRTRPPRLPRPRPRPTASPRP, the “shrunken log2 fold change” value is 0.0344.
With RRIRMRPPRLPRPRPRPLEKPRP the figure was 1.07; with RRIRERPPRLPRPRPRPICRPRP, 0.0559; with RRIRERPPRLPRPRPRPNVPPRP, -0.0158.
As to RRIRKRPPRLPRPRPRPGYAPRP, the “shrunken log2 fold change” value turned out to be 0.223.
On to RRIRQRPPRLPRPRPRPIYLPRP, for which the “shrunken log2 fold change” value is -0.163.
Consider RRIRMRPPRLPRPRPRPVSVPRP, for which the “shrunken log2 fold change” value came to 0.699.
In the case of RRIRGRPPRLPRPRPRPNVCPRP it was -0.237; in that of RRIRPRPPRLPRPRPRPHADPRP, -0.161.
In the case of RRIRIRPPRLPRPRPRPMPHPRP it was -0.0728; in that of RRIRTRPPRLPRPRPRPWCMPRP, -0.0742; in that of RRIRARPPRLPRPRPRPYTMPRP, -0.301.
With RRIRWRPPRLPRPRPRPKRRPRP the figure was 0.0884.
Take RRIRPRPPRLPRPRPRPIMYPRP: the “shrunken log2 fold change” value was -0.175.
With RRIRDRPPRLPRPRPRPFTYPRP, the “shrunken log2 fold change” value was -0.0134.
Regarding RRIRDRPPRLPRPRPRPLACPRP, the “shrunken log2 fold change” value is 0.945.
On to RRIRQRPPRLPRPRPRPRKMPRP, for which the “shrunken log2 fold change” value is -0.0294.
With RRIRRRPPRLPRPRPRPRIAPRP the figure was 0.652; with RRIRPRPPRLPRPRPRPIVCPRP, -0.228; with RRIRQRPPRLPRPRPRPKVQPRP, 0.0205.
With RRIRERPPRLPRPRPRPGKLPRP, the “shrunken log2 fold change” value was 0.162.
With RRIRGRPPRLPRPRPRPDEQPRP the figure was -0.0342; with RRIRDRPPRLPRPRPRPLGYPRP, 0.0343; with RRIRDRPPRLPRPRPRPNVQPRP, -0.131.
With RRIRPRPPRLPRPRPRPWCNPRP the figure was -0.239; with RRIRVRPPRLPRPRPRPRKCPRP, -0.0338.
On to RRIRVRPPRLPRPRPRPPFYPRP, for which the “shrunken log2 fold change” value is -0.0377.
On to RRIRIRPPRLPRPRPRPDQKPRP, for which the “shrunken log2 fold change” value was -0.0112.
In the case of RRIRFRPPRLPRPRPRPAEHPRP it was 0.26; in that of RRIRLRPPRLPRPRPRPEQQPRP, 0.0529; in that of RRIRIRPPRLPRPRPRPPPAPRP, 0.543.
Turning to RRIRGRPPRLPRPRPRPDRLPRP, the “shrunken log2 fold change” value is -0.00118.
In the case of RRIRIRPPRLPRPRPRPDRDPRP, the “shrunken log2 fold change” value is -0.0646.
On to RRIRHRPPRLPRPRPRPTANPRP, for which the “shrunken log2 fold change” value was 0.0557.
Take RRIRYRPPRLPRPRPRPWLGPRP: the “shrunken log2 fold change” value is -0.0293.
In the case of RRIRVRPPRLPRPRPRPWDEPRP it was -0.334.
With RRIRARPPRLPRPRPRPMAYPRP the figure was 0.546.
In the case of RRIRWRPPRLPRPRPRPQDFPRP it was 0.203.
